Laboratory results taken from US7150969B2, “Alternatively spliced isoform of acetyl-CoA carboxylase 2 (ACC2)” (Rosetta Inpharmatics LLC, priority 2004, dated 2006).

Test system: CC(=O)SCCNC(=O)CCNC(=O)[C@H](O)C(C)(C)COP(=O)(O)OP(=O)(O)OC[C@H]1O[C@@H](n2cnc3c(N)ncnc32)[C@H](O)[C@@H]1OP(=O)(O)O
Assay: purified protein, by the assay type
Settings: other: 37° C., 40 minutes, pH 7.5, 20 mM citrate

Substance | Km [µM]
ACC1 (Homo sapiens) | 51
ACC2 (Homo sapiens) | 108
